Results: patent US20150291951

How the values were obtained:
Assay in all cases: cell_activity
[1] = test system: ponzr1 right TALEN +231 (pTAL) (synthetic construct (Xanthomonas TALE-FokI)); settings: pair with P3; zebrafish larvae
[2] = test system: crhr1 right TALEN +231 (synthetic construct (Xanthomonas TALE-FokI)); settings: pair with P7
[3] = test system: crhr1 right TALEN +63 (synthetic construct (Xanthomonas TALE-FokI)); settings: pair with P5, 15 bp spacer; 15-fold over +231
[4] = test system: ponzr1 left TALEN +231 (pTAL) (synthetic construct (Xanthomonas TALE-FokI)); settings: pair with P4; zebrafish larvae
[5] = test system: crhr1 left TALEN +231 (synthetic construct (Xanthomonas TALE-FokI)); settings: pair with P8
[6] = test system: crhr1 left TALEN +63 (synthetic construct (Xanthomonas TALE-FokI)); settings: pair with P6, 15 bp spacer; 15-fold over +231

ATCAGAACAACAGTCAGAGAT (double strand) [ponzr1 right half-site]
activity (% modification (median)) [1]: 5

CTGCTGCCGACTGGACCCTGAGGT (double strand) [crhr1 right half-site]
activity (% modification (median)) [2]: < 1
activity (% modification (median)) [3]: 7

GTGAGCACCCAGCGGACCTCCTCT (double strand) [ponzr1 left half-site]
activity (% modification (median)) [4]: 5

TGCAACACTGAGCTCTGTAAACCT (double strand) [crhr1 left half-site]
activity (% modification (median)) [5]: < 1
activity (% modification (median)) [6]: 7
